Test results taken from patent publication US10544159B2, “Artemisinin derivatives, methods for their preparation and their use as antimalarial agents” (priority 2012, dated 2020).
Where a chain is given by its changes, count along the chain named. Several values for one entry are separate records, joined by “and”; a condition that tells them apart may be missing. Identical values can stand only once.

B1: IV-H4: FL#62-derived P450 variant (SEQ ID NO. 9), 7(S)-hydroxylating (protein)
chain: MTIKEMPQPKTFGELKNLPLLNTDKPVQALMKIADELGEIFKFEAPGRVTRYLSSQRLIKEACDESRFDKNLSQALKFSRDVAGDGLATSWTHEKNWKKAHNILLPSFSQQAMKGYHAMMVDIAVQLVQKWERLNADEHIEVSEDMTRLTLDTIGLCGFNYRFNSFYRDQPHPFIISMVRTLDEVMNKLQRANPDDPVYDENKRQCQEDIKVMNDLVDKIIADRKARGEQSDDLLTQMLNGKDPETGEPLDDGNISYQIITFLIAGHETTSGLLSFALYFLVKNPHVLQKVAEEAARVLVDPVPSYKQVKQLKYVGMVLNEALRLWPTAPAFSLYAKEDTVLGGEYPLEKGDEVMVLIPQLHRDKTIWGDDVEEFRPERFENPSAIPQHAFKPFGNGQRACIGQQFALHEATLVLGMMLKHFDFEDHTNYELDIKETLTLKPEGFVVKAKSKKIPLGGIPSPSTEQSAKKVRKKAENAHNTPLLVLYGSNMGTAEGTARDLADIAMSKGFAPQVATLDSHAGNLPREGAVLIVTASYNGHPPDNAKQFVDWLDQASADEVKGVRYSVFGCGDKNWATTYQKVPAFIDETLAAKGAENIADRGEADASDDFEGTYEEWREHMWSDVAAYFNLDIENSEDNKSTLSLQFVDSAADMPLAKMHGAFSTNVVASKELQQPGSARSTRHLEIELPKEASYQEGDHLGVIPRNYEGIVNRVTARFGLDASQQIRLEAEEEKLAHLPLAKTVSVEELLQYVELQDPVTRTQLRAMAAKTVCPPHKVELEALLEKQAYKEQVLAKRLTMLELLEKYPACEMKFSEFIALLPSIRPRYYSISSSPRVDEKQASITVSVVSGEAWSGYGEYKGIASNYLAELQEGDTITCFISTPQSEFTLPKDPETPLIMVGPGTGVAPFRGFVQARKQLKEQGQSLGEAHLYFGCRSPHEDYLYQEELENAQSEGIITLHTAFSRMPNQPKTYVQHVMEQDGKKLIELLDQGAHFYICGDGSQMAPAVEATLMKSYADVHQVSEADARLWLQQLEEKGRYAKDVWAG
B2: II-E2: FL#62-derived P450 variant (SEQ ID NO. 13) (protein)
chain: B1 chain with S79N, V82F
B3: FL#62: CYP102A1-derived engineered P450 variant (SEQ ID NO. 8) (protein)
chain: B1 chain with S79A, V82S, A83V
B4: X-E12: II-E2-derived P450 variant (SEQ ID NO. 14), 6a-hydroxylating (protein)
chain: B1 chain with A75V, S79N, V82F, L182A, V185T
B5: X-F11: II-E2-derived P450 variant (SEQ ID NO. 15), 6a-hydroxylating (protein)
chain: B1 chain with A75T, S79N, V82F, T181A, V185S
B6: V-H2: FL#62-derived P450 variant (SEQ ID NO. 10) (protein)
chain: B1 chain with V82I
B7: II-H10: FL#62-derived P450 variant (SEQ ID NO. 11), 7(R)-hydroxylating (protein)
chain: B1 chain with S79N, V82F, A83T, A88F, L182F, V185T
B8: III-B1: FL#62-derived P450 variant (SEQ ID NO. 12) (protein)
chain: B1 chain with S79F, V82F

Key:
P. berghei ANKA = assay: Antimalarial activity in Plasmodium berghei-infected mice; type: in vivo; set-up: fold higher survival rate than in the absence of treatment: concentration or dose not given beside the values; conditions: male C57BL6 mice, after day 7
Method: Briefly, asynchronous P. falciparum (strain 3d7) cultures were maintained at 37° C. at >10% parasitemia in fresh human red blood cells (2% hematocrit) in complete malaria medium. After 4 days (i.e., after 2 replicative parasitic cycles) flasks were synchronized with 5% sorbitol. 72 hours after synchronization, cells were plated and treated with the artemisinin derivatives at various concentrations. After 48 hours of incubation, the cells were lysed and labeled with SybrGreen and fluorescence emission was measured (excitation at 485 nm, emission at 530 nm). […] For the in vivo studies, male C57BL6 mice (6-8 weeks old) were infected with 0.7×10^5 P. berghei ANKA iRBCs and then treated with intraperitoneal injections of the compounds starting from day 3-5 post infection. A set of mice was left untreated and served as negative control. Survival was monitored and parasitemia determined SYBR-green (SYBRGr) staining of infected red blood cells and subsequent flow cytometric analysis.

[1] = biological target: P450 variant FL#62 (SEQ ID NO. 8) (Priestia megaterium, UniProt P14779, A181T/A185V/A198V/A291V/A83V/E253G/F206C/F82S/F88A/H237Q/L354V/P143S/R256S/S227R/T176I/V79A); conditions: 0.5 mM substrate, 1 μM FL#62, 12 hours
P450 variant FL#62 (SEQ ID NO. 8), sequence (P14779 other isoform, or with tags, fused parts or gaps with the stated changes): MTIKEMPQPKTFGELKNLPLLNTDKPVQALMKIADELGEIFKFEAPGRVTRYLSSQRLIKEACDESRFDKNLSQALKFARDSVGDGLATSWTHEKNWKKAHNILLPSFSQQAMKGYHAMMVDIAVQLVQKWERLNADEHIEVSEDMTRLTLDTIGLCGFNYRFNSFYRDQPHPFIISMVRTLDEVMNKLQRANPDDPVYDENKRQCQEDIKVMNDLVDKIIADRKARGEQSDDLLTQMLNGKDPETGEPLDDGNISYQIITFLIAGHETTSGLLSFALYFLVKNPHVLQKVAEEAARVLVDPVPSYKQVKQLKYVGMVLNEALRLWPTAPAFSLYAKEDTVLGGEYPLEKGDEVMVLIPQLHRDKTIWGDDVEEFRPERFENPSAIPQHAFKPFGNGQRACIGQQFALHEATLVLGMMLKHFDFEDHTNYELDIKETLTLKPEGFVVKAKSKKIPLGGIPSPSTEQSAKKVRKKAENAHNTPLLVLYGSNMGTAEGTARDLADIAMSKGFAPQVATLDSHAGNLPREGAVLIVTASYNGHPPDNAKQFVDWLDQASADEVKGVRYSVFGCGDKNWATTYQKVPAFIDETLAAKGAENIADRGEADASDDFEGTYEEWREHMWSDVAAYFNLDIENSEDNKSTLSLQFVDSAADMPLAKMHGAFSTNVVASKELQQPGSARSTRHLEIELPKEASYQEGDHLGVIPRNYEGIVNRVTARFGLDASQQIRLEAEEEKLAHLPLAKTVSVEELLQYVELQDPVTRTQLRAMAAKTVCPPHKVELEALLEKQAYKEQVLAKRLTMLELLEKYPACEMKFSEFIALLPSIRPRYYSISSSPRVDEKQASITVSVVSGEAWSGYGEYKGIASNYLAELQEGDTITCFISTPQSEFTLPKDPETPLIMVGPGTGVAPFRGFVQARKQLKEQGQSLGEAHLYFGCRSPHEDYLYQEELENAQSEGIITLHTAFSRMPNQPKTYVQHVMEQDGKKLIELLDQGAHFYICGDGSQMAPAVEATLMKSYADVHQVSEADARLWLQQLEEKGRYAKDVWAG
Method: Reaction conditions were: 0.5 mM substrate, 1 μM FL#62 (SEQ ID NO: 8), 2 μM PTDH, 100 μM NADP^+, and 50 mM sodium phosphite in potassium phosphate buffer (50 mM, pH 8.0). After 12 hours, the hydroxylation products formed in these reactions were extracted with dichloromethane and quantified by HPLC and LC-MS.

wild-type P450BM3 = wild-type P450BM3 (Priestia megaterium, UniProt P14779); conditions: fatty acid laurate with wild-type P450BM3; read-out: equilibrium dissociation constant; cited from earlier work
wild-type P450BM3, sequence (P14779 whole entry): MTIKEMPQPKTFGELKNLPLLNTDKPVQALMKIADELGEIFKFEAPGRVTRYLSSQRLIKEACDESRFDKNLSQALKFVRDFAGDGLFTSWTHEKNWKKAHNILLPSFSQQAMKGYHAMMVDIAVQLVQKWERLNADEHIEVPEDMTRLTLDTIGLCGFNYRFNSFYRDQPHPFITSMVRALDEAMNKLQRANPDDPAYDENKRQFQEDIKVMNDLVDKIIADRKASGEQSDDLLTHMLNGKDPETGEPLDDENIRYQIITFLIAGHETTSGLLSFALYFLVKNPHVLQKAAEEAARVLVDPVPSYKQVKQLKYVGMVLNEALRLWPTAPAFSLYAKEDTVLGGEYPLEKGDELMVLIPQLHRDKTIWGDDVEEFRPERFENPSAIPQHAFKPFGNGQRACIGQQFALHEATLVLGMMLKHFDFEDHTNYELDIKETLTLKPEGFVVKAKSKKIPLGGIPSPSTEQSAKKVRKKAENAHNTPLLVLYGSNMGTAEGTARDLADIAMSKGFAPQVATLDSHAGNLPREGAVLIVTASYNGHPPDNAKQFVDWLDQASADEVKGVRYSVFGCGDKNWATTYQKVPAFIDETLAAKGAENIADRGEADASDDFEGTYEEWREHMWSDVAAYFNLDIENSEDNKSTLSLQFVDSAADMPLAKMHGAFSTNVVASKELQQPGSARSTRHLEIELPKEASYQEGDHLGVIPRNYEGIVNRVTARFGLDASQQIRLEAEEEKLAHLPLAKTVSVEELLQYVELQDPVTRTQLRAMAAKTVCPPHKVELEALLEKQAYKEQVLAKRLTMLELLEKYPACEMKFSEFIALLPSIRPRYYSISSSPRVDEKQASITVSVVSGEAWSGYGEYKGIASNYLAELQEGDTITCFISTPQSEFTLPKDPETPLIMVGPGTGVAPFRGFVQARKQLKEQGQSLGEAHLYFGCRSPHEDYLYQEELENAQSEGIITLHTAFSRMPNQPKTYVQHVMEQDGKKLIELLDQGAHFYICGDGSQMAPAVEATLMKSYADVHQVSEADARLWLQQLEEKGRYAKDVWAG

[2] = KD for artemisinin binding to P450 variants (heme spin-shift titration); conditions: binding of artemisinin to 3 μM purified P450, pH 8.0
Method: Determination of KD Values for Artemisinin Binding.
Binding experiments were performed using 3 μM purified P450 in potassium phosphate buffer (50 mM, pH 8.0) by titrating increasing amounts of artemisinin (5 μM to 1 mM) from an ethanol stock solution (50 mM). At each concentration, a difference spectrum from 350 to 500 nm was recorded and binding curves were generated by plotting the change in absorbance at 390 nm and 420 nm corresponding to the high-spin and low-spin state of the enzyme, respectively, against the artemisinin concentration. KD values were calculated using Sigma Plot via non-linear fitting of the experimental binding curves to an equation describing a standard 1:1 binding interaction. Reported mean and standard deviation values were calculated from experiments performed at least in triplicate.

[3] = Total turnovers and regio-/stereoselectivity of P450 variants in artemisinin hydroxylation (analytical scale); type: biochemical; conditions: for Product distribution (%) 4: share of 6a-hydroxy-ART (4); for Product distribution (%) 4 / Product distribution (%) 3 / Product distribution (%) 2: 0.5 mM artemisinin, 0.5-1 μM P450, 12 hours; for Product distribution (%) 3: share of 7(R)-hydroxy-ART (3); for Product distribution (%) 2: share of 7(S)-hydroxy-ART (2); for TTN: total turnovers on artemisinin, NADPH cofactor regeneration system, analytical scale
Method: Determination of Total Turnovers and Regio- and Stereoselectivity of the P450 Variants.
After 12 hours, 9-fluorenone was added to the mixtures as internal standard. The hydroxylation products were functionalized with benzoyl chloride followed by HPLC analysis. TTN values were calculated based on the total amount of hydroxylated products in the reactions as quantified based on the calibration curves generated using purified 2-4. The enzyme regio- and stereoselectivity was determined based on the area under the curve of the chromatographic peaks corresponding to the hydroxylation products 2, 3, and 4. Mean and standard deviation values reported for P450 variants in Table 1 were calculated from experiments performed at least in triplicate.

[4] = type: biochemical; conditions: 250 μM artemisinin, rates measured over initial 30 seconds
Method: Measurement of Product Formation Rates and Coupling Efficiency.
Initial product formation rates were measured from 1 mL-scale reactions containing 250 μM artemisinin, 0.1-0.5 μM purified P450, and 200 μM NADPH in potassium phosphate buffer (50 mM, pH 8.0) at room temperature. After 30 seconds, the samples were extracted with dichloromethane and subjected to benzoyl chloride derivatization followed by HPLC analysis as described above. Cofactor oxidation rate in the presence of artemisinin was measured by monitoring NADPH depletion at 340 nm (ε=6.22 mM^−1 cm^−1) using 0.1 μM purified P450, 250 μM artemisinin, and 200 μM NADPH. Coupling efficiency was calculated from the ratio between the initial product formation rate and the initial NADPH oxidation rate. Reported mean and standard deviation values were calculated from experiments performed at least in triplicate.

Row | Molecule | survival rate (P. berghei ANKA; intraperitoneal injections starting from day 3-5 post infection) [%] | fold higher survival rate than in the absence of treatment (P. berghei ANKA; intraperitoneal) [fold] | catalytic activity relative to that displayed in the presence of artemisinin [1] | Kd (wild-type P450BM3) [µM] | Kd [2] [µM] | (S)-stereoselectivity for C7 hydroxylation ([3]; artemisinin as substrate) [%] | regioselectivity for C7 hydroxylation ([3]; artemisinin as substrate) [%] | Product distribution (%) 4 [3] [%] | Product distribution (%) 3 [3] [%] | Product distribution (%) 2 [3] [%] | TTN [3] | Product formation rate [4] | regioselectivity toward 6a-hydroxylation ([3]; artemisinin as substrate) [%]
1 | CC1C(=O)OC2OC3(C)CCC4C(C)[C@H](F)CC1C24OO3 (stereo partly drawn) [Compound 5, 7(R)-fluoro-artemisinin] | 80 | 2 | – | – | – | – | – | – | – | – | – | – | –
2 | COC(=O)CCC(=O)O[C@@H]1O[C@@H]2O[C@@]3(C)CC[C@H]4[C@H](C)CC[C@@H]([C@H]1C)[C@@]24OO3 [artesunate methyl ester] | – | – | ca. 80% | – | – | – | – | – | – | – | – | – | –
3 | CCCCCCCCCCCC(=O)O [laurate] | – | – | – | 270 | – | – | – | – | – | – | – | – | –
4 | B1 | – | – | – | – | 53 ± 11 | > 99.9 | > 99.9 | 0 | 0 | 100 | 362 and 362 ± 15 | 100 ± 4 Mole product per mole P450 per minute | –
5 | B2 | – | – | – | – | 164 ± 18 | – | – | 48 | 30 | 22 | 393 and 393 ± 25 | 148 ± 3 Mole product per mole P450 per minute | 48
6 | B3 | – | – | – | – | 29 ± 5 | – | – | 7 | 10 | 83 | – | 316 ± 20 Mole product per mole P450 per minute | 7
7 | B4 | – | – | – | – | 300 ± 24 | – | – | 94 | 2 | 4 | 113 and 113 ± 12 | 72 ± 3 Mole product per mole P450 per minute | 94
8 | B5 | – | – | – | – | 234 ± 29 | – | – | 92 | 8 | 0 | 376 ± 19 | 56 ± 2 Mole product per mole P450 per minute | 92
9 | B6 | – | – | – | – | 45 ± 10 | – | – | 4 | 0 | 96 | 434 ± 21 | 41 ± 2 Mole product per mole P450 per minute | –
10 | B7 | – | – | – | – | 61 ± 2 | – | – | 0 | 100 | 0 | 270 ± 8 | 32 ± 2 Mole product per mole P450 per minute | –
11 | B8 | – | – | – | – | 38 ± 2 | – | – | 0 | 81 | 19 | 403 ± 17 | 72 ± 2 Mole product per mole P450 per minute | –
